The text below walks through data of patent US20250368734A1 (ANTENGENE BIOLOGICS, published 2025).

Read-outs that look alike come from different tables or passages of the source.

As usually defined, the EC50 is the concentration needed to bring the measured effect to its halfway point.

Assay [1] deals with T1, mouse GPRC5D (mouse, UniProt Q9JIL6 1-344).
T1 construct: whole, on cells; HEK293T-mGPRC5D cells; also called mGPRC5D; murine GPRC5D
T1 sequence (looked up): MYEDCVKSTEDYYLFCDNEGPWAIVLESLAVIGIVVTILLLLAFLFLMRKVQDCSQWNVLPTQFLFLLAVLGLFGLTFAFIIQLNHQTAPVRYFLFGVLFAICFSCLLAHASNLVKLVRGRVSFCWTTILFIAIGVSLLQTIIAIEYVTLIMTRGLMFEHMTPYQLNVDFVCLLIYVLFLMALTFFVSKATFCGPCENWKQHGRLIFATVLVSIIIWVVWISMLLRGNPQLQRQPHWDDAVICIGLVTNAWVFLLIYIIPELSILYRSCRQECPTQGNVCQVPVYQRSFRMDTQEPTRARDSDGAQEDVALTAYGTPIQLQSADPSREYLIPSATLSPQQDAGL
Briefly: FACS, HEK293T-mGPRC5D cells. The text has this:
(§1) The subcloning plates were screened by Mirrorball assay and the subclones with good binding ability were expanded to 24-wells for confirmation tests. The specificity and cross-reactivity of these subclones were confirmed with FACS analysis. Briefly, parental HEK293T, HEK293T cells stably over-expressing human GPRC5D protein (i.e., HEK293T-hGPRC5D), HEK293T cells stably over-expressing cynomolgus monkey GPRC5D protein (i.e., HEK293T-cynoGPRC5D), HEK293T cells stably over-expressing mouse GPRC5D protein (i.e., HEK293T-mGPRC5D), and OPM2 cells were incubated with antibodies produced by each subclone, respectively. Fluorescent dye-conjugated secondary antibody was used to detect the binding of the primary antibody with the cells. Median fluorescence intensity (MFI) was measured by FACS analysis,
(§2) As a result, 21 antibodies were discovered with unique sequences showing positive binding with HEK293T-hGPRC5D and OPM2 cells. Among which, some clones could also bind with HEK293T-cynoGPRC5D and/or HEK293T-mGPRC5D. […] ATG596 was a positive human IgG1 control antibody which comprises a VH region having an amino acid sequence as set forth in SEQ ID NO: 199, and a VL region having an amino acid sequence as set forth in SEQ ID NO: 200.
On the technique in general: Flow cytometry measures light scatter and fluorescence of single cells or particles in a stream.

The target in assay [2] is T1, mouse GPRC5D. Description: FACS, HEK293T-mGPRC5D cells. The source holds these as a separate data set.
In assay [3] the target is T2, cynomolgus monkey GPRC5D (cynomolgus monkey).
T2 construct: whole, on cells; HEK293T-cynoGPRC5D cells; also called cynoGPRC5D
Description: FACS, HEK293T-cynoGPRC5D cells.

The target in assay [4] is T1, mouse GPRC5D. Briefly: FACS, HEK293T-mGPRC5D cells.
From the text: as §1, §2
The source holds these as a separate data set.

For assay [5], the target named is T2, cynomolgus monkey GPRC5D. Briefly: FACS, HEK293T-cynoGPRC5D cells.
From the text: as §1, §2
The source holds these as a separate data set.

Assay [6] has as its target T2, cynomolgus monkey GPRC5D. Briefly: FACS, HEK293T-cynoGPRC5D cells.
From the text: as §1, §2
This is another data set of the same source.

B1: ATG596 (antibody, V domains shown)
VH: QVQLVQSGAEVKKPGASVKVSCKASGYSFTGYTMNWVRQAPGQGLEWMGLINPYNSDTNYAQKLQGRVTMTTDTSTSTAYMELRSLRSDDTAVYYCARVALRVALDYWGQGTLVTVSS
VL: DIQMTQSPSSLSASVGDRVTITCKASQNVATHVGWYQQKPGKAPKRLIYSASYRYSGVPSRFSGSGSGTEFTLTISNLQPEDFATYYCQQYNRYPYTFGQGTKLEIK
notes: Human IgG1; also called benchmark antibody ATG596; positive human IgG1 control antibody
On to B1, for which the “% Positive” value turned out to be 98.2% in the assay with mouse GPRC5D [1], 97.3% in the assay with mouse GPRC5D [4], 98.6% with cynomolgus monkey GPRC5D [5] and 98.5% with cynomolgus monkey GPRC5D [6]. For the same molecule, the MFI amounted to 14600 with mouse GPRC5D [1], 12400 in the assay with mouse GPRC5D [4], 6580 in the assay with cynomolgus monkey GPRC5D [5] and 7400 in the assay with cynomolgus monkey GPRC5D [6]. For the same molecule, the EC50 with mouse GPRC5D [2] came out at 25.5 nM; with cynomolgus monkey GPRC5D [3], 26.6 nM. Further, the values for the Top with mouse GPRC5D [2] and with cynomolgus monkey GPRC5D [3] were 45600 and 22500, respectively.
